Laboratory results: the nanobody polyreactivity screen of Harvey et al. (2022)

Assay: yeast display, Sf9 membrane polyspecificity reagent, FACS + sequencing; frameworks hold sequencing errors
Outline: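 Polyreactivity labels are assigned by the sorting gate from which each nanobody was recovered. The gates were low and high (top ~1%), set on anti-HA fluorescence for expression and streptavidin fluorescence for reagent binding. Before sorting, galactose-induced (36–48 hours) yeast display cells were stained for 1 hour at 4 °C with 10% biotinylated, detergent-solubilized Sf9 membrane reagent.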

Sequence | polyreactivity (PSR sort gate)
QVQLVESGGGLVQAGGSLRLSCAASGFTFWTNAMGWYRQAPGKERELVAAITSSGGTTYYADSVKGRFTISRDNAKNTVYLQMNSLKPEDTAVYYCAAELGGYVASYYYPGYDYWGQGTQVTVSS | low polyreactivity
QVQLVESGGGLVQAGGSLRLSCAASGFTFWVYAMGWYRQAPGKEREFVAAISGIGDDTNYADSVKGRFTISRDNAKNTVYLQMNSLKPEDTAVYYCATVALRYYGVTEFDYWGQGTQVTVSS | high polyreactivity
QVQLVESGGGLVQAGGSLRLSCAASGFTFWWYTMGWYRQAPGKERELVAAITWSGSRTYYADSVKGRFTISRDNAKNTVYLQMNSLKPEDTAVYYCAATYLKVHGEYDYWGQGTQVTVSS | high polyreactivity
QVQLVESGGGLVQAGGSLRLSCAASGFTFWYNTMGWYRQAPGKERELVAAINRGGGRTYYADSVKGRFTISRDNAKNTVYLQMNSLKPEDTAVYYCAKKDYYSKVGGPQSEYDYWGQGTQVTVSS | low polyreactivity
QVQLVESGGGLVQAGGSLRLSCAASGFTFWYYAMGWYRQAPGKERELVAAISRSGTSTYYADSVKGRFTISRDNAKNTVFLQMNCLKPEDSAVYYCNVLRVNSITYLMDYWVQGTQVTVSS | high polyreactivity
QVQLVESGGGLVQAGGSLRLSCAASGFTFWYYAMGWYRQAPGKERELVASISSIGGSTYYADSVKGRFTISRDNAKNTVYLQMNSLKPEDTAVYYCAADRSSNGLMPGSKNEYWGQGTEVTVSS | high polyreactivity
QVQLVESGGGLVQAGGSLRLSCAASGFTFWYYAMGWYRQAPGKERELVATISRGGGSTYYADSVKGRFTISRDNAKNTVYLQMNSLKPEDTAVYYCNAALTRVSRFWGGDYYYWGQGTQVTVSS | high polyreactivity
QVQLVESGGGLVQAGGSLRLSCAASGFTFWYYDMGWYRQAPGKERELVAAISRSGTSTYYADSVKGRFTISRDNAKNTVYLQMNSLKPEDTAVYYCNKVRNTRSYDYWGQGTQVTVSS | high polyreactivity
QVQLVESGGGLVQAGGSLRLSCAASGFTFYAYAMGWYREAPGKERELVATIRRSTGSTYYADSVKGRFTISRDNAKNTVYLQMNSLKQQDTAVYYFATRVWFPITSYDYWGQGTQVTVSS | low polyreactivity
QVQLVESGGGLVQAGGSLRLSCAASGFTFYAYAMGWYRQAPGKERELVAAITWDDDSTSYADSVKGRFTISRDNAKNTVYLQMNSLKPEDTAVYYCAADSIRHRRYKYDYWGQGTQVTVSS | low polyreactivity
QVQLVESGGGLVQAGGSLRLSCAASGFTFYDYAMGRYIQAPGKERELVAGINSGDSTYYADSVKGRFTISRDNAKNSVYLLMNSLKPEDSAVYYCAADWAWLQWAYDYWGQGTQVTVSS | low polyreactivity
QVQLVESGGGLVQAGGSLRLSCAASGFTFYGNAMGSSRQAPGKEREWVAAITSTGNTYYADSVTGRFTISRDNAKNTVYLQMNSLKPEDTAVYYCARRGDILYDYWGQGTQVTVSS | low polyreactivity
QVQLVESGGGLVQAGGSLRLSCAASGFTFYGYAKGWYRQAPGKERELVAAISKRGGSTYYADSVKGRFTISRDNAKNPVYLQMNSLKPEDTAVYYCNADKHYQYRYRQYGYWGQGTQVTVSS | high polyreactivity
QVQLVESGGGLVQAGGSLRLSCAASGFTFYGYAMGWYRQAPGKERELVAAISRSGVRTYYADSVKGRFTISRDNAKNTVYLQMNSLKPEDTAVYYCNAVPRYGYYWGQGTQVTVSS | high polyreactivity
QVQLVESGGGLVQAGGSLRLSCAASGFTFYGYAMGWYRQAPGKERELVAAITSSGGSTYYADSVKGRFTISRDNAKNTVYLQMNSLKPEDTAVYYCAVVTILVFRYVVPYDYWGQGTQVTVSS | high polyreactivity
QVQLVESGGGLVQAGGSLRLSCAASGFTFYGYTMGWYRQAPGKERELVAAINKSGSSTYYADSEKGRFTISRDNAKNTVYLQMNSLKPEDTAVYYCNAYYRKVLGYDKMDYWGQGTQVTVSS | high polyreactivity
QVQLVESGGGLVQAGGSLRLSCAASGFTFYHYAMGWYRQAPGKERELVAAIDNGGSTYADSVKGRFTISRDNAKNTVYLQMNSLKPEDTAVYYCAAVYLRYINGFYYWGQGTQVTVSS | low polyreactivity
QVQLVESGGGLVQAGGSLRLSCAASGFTFYIYAMGWYRQAPGKERELVAAINFRGGSTYYADSVKGRFTISRDNAKNTVYLQMNSLKPEDTAVYYCAARSRDKYDYWGQGTQVTVSS | high polyreactivity
QVQLVESGGGLVQAGGSLRLSCAASGFTFYKNAMGWYRQAPGKERELVAAITRRGSRTYYADSVKGRFTISRDNAKNTVYLQMNSLKPEDTAVYYCAADDGSDAEYYYWGQGTQVTVSS | high polyreactivity
QVQLVESGGGLVQAGGSLRLSCAASGFTFYKNTMGWYRQAPGKVRELGAAISSSGSSTYYADSVKGRFTISRDNAKTTVYLQMNSLKPEDTAVYYCAAVSHYPAGYDYWGQGTQVTVSS | high polyreactivity
QVQLVESGGGLVQAGGSLRLSCAASGFTFYKYALGWYRQAPGKERELVAAISNSGGSTYYADSVKGRFTISRDNAKNTVYLQMNCLKPEDTAVYYCAKLSDSITLYGYWGQGTQVNVSS | high polyreactivity

Sequence | polyreactivity (PSR sort gate)
QVQLVESGGGLVQAGGSLRLSCAASGFTFYKYAMGWYRPAPGKERELVAAITWSGGRTYYADSVKGRFTISRDNAKNTVYLKMNSLKPEDTAVYYCTARQKQGNFDYWGQGTQVTVSS | high polyreactivity
QVQLVESGGGLVQAGGSLRLSCAASGFTFYKYAMGWYRQAPGKERELVAAISRRGTSTYYADSVKGRFTISRDNAKNTVYLQMNSLKPEDTAVYYCAAEIWSYPAYDYWGQGTQVTVSS | high polyreactivity
QVQLVESGGGLVQAGGSLRLSCAASGFTFYLNAMGWYRQAPGKERELVAAITRRGTSTYYADSVKGRFTISRDNAKNTVYLQMNSLKPEDTAVYYCAARPLDYWGQGTQVTVSS | high polyreactivity
QVQLVESGGGLVQAGGSLRLSCAASGFTFYLYAMGWYRQAPGKERELVASISSGGRTKYADSVKGRFSISRDNAMNTVYLQMNSLKPEDTAVYYCAARGYFTRQFTPYDYWGQGTQVTVSS | high polyreactivity
QVQLVESGGGLVQAGGSLRLSCAASGFTFYLYTMGWYRQAPGKERELVATITSDGGTNYADSVKGRFTISRDNAKNTVYLQMNSLKPEDTAVYYCNAASRRGSRKQAKYDFWGQGTQVTVSS | low polyreactivity
QVQLVESGGGLVQAGGSLRLSCAASGFTFYLYTMGWYRQAPGKERELVATITSDGGTNYADSVKGRFTISRDNAKNTVYLQMNSLTPEDTAVYYCARDYLSPYAVDYWGQGTQVTVSS | low polyreactivity
QVQLVESGGGLVQAGGSLRLSCAASGFTFYLYTMGWYRQAPGKERELVATITSDGGTNYADSVKGRFTISRDNAKYTVYLQMNSLKPEDTAVYYCNAASRRGSRKQAKYDYWGQGTQVTVSS | low polyreactivity
QVQLVESGGGLVQAGGSLRLSCAASGFTFYNNAMGWYRQAPGKERELVAAISRSGGSTHYADSVKGRFTISRDTAKNTVYLQMNSLKPEDNAVYYCAKVGVLGYYTYYYWGQVTQVTVSS | low polyreactivity
QVQLVESGGGLVQAGGSLRLSCAASGFTFYNYAMGWFRQATGKERELVAASNSGGSTYYADSVKGRFTSSRDNATNTVYLQMNSLKPEDTAVDYFAARSYYQYRRYYSWGQGTQVTVSS | high polyreactivity
QVQLVESGGGLVQAGGSLRLSCAASGFTFYNYAMGWYRQAPGKERELVAAISYSGGSTYYADSVKGRFTISRDNAKNTVYLQMNSLKPEDTAVYYCAVVWWIQYVPGSYHAGYYWGQGTQVTVSS | high polyreactivity
QVQLVESGGGLVQAGGSLRLSCAASGFTFYQYAMGWYRQAPGKERELVAAISSSGTSTYYADSVKGRFTISRDNAKNTVYLQMNSLKPEDTAVYYCAKDKSPYGYATNQYRKYYYWGQGTQVTVSS | low polyreactivity
QVQLVESGGGLVQAGGSLRLSCAASGFTFYQYAMGWYRQAPGKERELVASISWSGGRTYYADSVKGRFTISRDNAKNTVYLQMNSLKPEDTAVYYCAARAYRIAGYDYWGQGTQVTVSS | high polyreactivity
QVQLVESGGGLVQAGGSLRLSCAASGFTFYRNAMGWYRQAPGKERELVAGISKRGGSTYYADSVKGRFTISRDNAKNTVYLQMNSLKPEDTAVYYCAAYKQYRFYRYDYWGQGTQVTVSS | high polyreactivity
QVQLVESGGGLVQAGGSLRLSCAASGFTFYRNAMGWYRQAPGKEREMVAAISWSGDSTYYADSVKGRFTISRDNAKNTVYLQMNSLNPEDTAVYYCAKERYFYYPWVTTYTSNYWGQGTQVTVSS | low polyreactivity
QVQLVESGGGLVQAGGSLRLSCAASGFTFYRNAMGWYRQPPGKERELVAAIDFSGSSTYYADSVKGRFTISRDNAKNTVYLQMNSLKPEDTAVYDCAAELGYAGYWYDYWGQGTQVTVSS | high polyreactivity
QVQLVESGGGLVQAGGSLRLSCAASGFTFYRYAMGWYRKAPGKERELVAAITRSGSRTYYADSVKGRFTISRDNAKNTVYLQMNSLKPEDTAVYYCKTDGGDHPTARYGYWGQGTQVTVSS | high polyreactivity
QVQLVESGGGLVQAGGSLRLSCAASGFTFYRYAMGWYRQAPGKERELVAAITRTGGSTYYADSVKGRFTISRDNAKNTVYLQMNSLKPEDTAVYYCAARVHGTGTLKYPNYYWGQGTQVTVSS | high polyreactivity
QVQLVESGGGLVQAGGSLRLSCAASGFTFYRYAMGWYRQAPGKERELVATISASGGSTYYADSVKGRFTISRDNAKNTVYLQMNSLKPEDTAVYYCAVRYKSWFGFNYWGQGTQVSVSS | high polyreactivity
QVQLVESGGGLVQAGGSLRLSCAASGFTFYRYTMGRYRQAPGKERELVAAITWSGGNTYYADSVKGRFTISRDNAKNTVYLQMNSLKPEDNAVYYCAAYKPYSKYNYWGQGTQVTVSS | high polyreactivity
QVQLVESGGGLVQAGGSLRLSCAASGFTFYRYVMGWYRKAPGKETELDAAISRRGGSTYYADSVKGRFTISRDNAKNTVYLQMNSLKPEDTAVYYCAADVISRYYVQYIGYYELHYDYWGQGTQVTVSS | high polyreactivity
